The values that follow come from patent US20250213686A1 (published 2025).

Test [1] addresses T1, IGRP (islet-specific glucose-6-phosphatase-related protein) peptide on HLA-DRA*01:01 / HLA-DRB1*04:01 (human). Briefly: upper end of the range; % CD137-expressing cells; LV-transduced CD4+ T cells 3:1 with peptide-pulsed HLA-DR4 K562 cells, 20 h; full-length, on cells.
The target of test [2] is T1, IGRP (islet-specific …). The test is described as follows: lower end of the range; % CD137-expressing cells; LV-transduced CD4+ T cells 3:1 with peptide-pulsed HLA-DR4 K562 cells, 20 h; full-length, on cells.
Test [3] addresses T1, IGRP (islet-specific …). The test is described as follows: lower end of the range; CD154 surface expression intensity; LV-transduced CD4+ T cells 3:1 with peptide-pulsed HLA-DR4 K562 cells, 20 h; full-length, on cells.
Test [4] concerns the target T2, DUF4435 domain-containing protein [Bacillus toyonensis] (IGRP305_324_path5) peptide on HLA-DRA*01:01 / … (human).
T2 peptide: YDEVLQIPTHQENTQ
The test is described as follows: activation reporter or marker.

In test [5] the target is T3, hypothetical protein KMI_05g09430 [Encephalitozoon hellem] (IGRP305_324_path18) peptide on HLA-DRA*01:01 / … (human).
T3 peptide: LSEFLKIPNHEITLL
The test is described as follows: activation reporter or marker.

In test [6] the target is T4, WD domain, G-beta repeat-containing protein [Toxoplasma gondii ARI] (IGRP305_324_path20) peptide on … (human).
T4 peptide: ESLFLQLSTHTEASA
Briefly: activation reporter or marker.

Test [7] deals with T5, hypothetical protein V495_01361 [Pseudogymnoascus sp. VKM F-4514 (FW-929)] (IGRP305_324_path15) peptide on … (human).
T5 peptide: SAMFLDIPTHPEEHS
The test is described as follows: activation reporter or marker.

Test [8] addresses T6, hypothetical protein ECU05_1220 [Encephalitozoon cuniculi GB-M1] (IGRP305_324_path19) peptide on … (human).
T6 peptide: QQKFLKNIDTHEEAE
The test is described as follows: activation reporter or marker.

In test [9] the target is T7, hypothetical protein T551_03071 [Pneumocystis jirovecii RU7] (IGRP305_324_path17) peptide on HLA-DRA*01:01 / … (human).
T7 peptide: FTDFLNIPSYEELND
The test is described as follows: activation reporter or marker.

In test [10] the target is T8, undecaprenyldiphospho-muramoylpentapeptide beta-N-acetylglucosaminyltransferase [Treponema sp.] … (human).
T8 peptide: AAKFLHIPVFTHECD
The test is described as follows: activation reporter or marker.

The target in test [11] is T9, exodeoxyribonuclease V subunit beta [Chlamydia caviae] (IGRP305_324_path12) peptide on HLA-DRA*01:01 / … (human).
T9 peptide: CSPFLQIPSYEPIEY
Briefly: activation reporter or marker.

Test [12] has as its target T10, TPA: UDP-N-acetylglucosamine--N-acetylmuramyl-(pentapeptide) pyrophosphoryl-undecaprenol N-acetylglucosamine … (human).
T10 peptide: AARFLHIPYYTHECD
The test is described as follows: activation reporter or marker.

In test [13] the target is T11, UDP-N-acetylglucosamine--N-acetylmuramyl-(pentapeptide) pyrophosphoryl-undecaprenol N-acetylglucosamine … (human).
T11 peptide: AASFLHIPYFTHECD
Briefly: activation reporter or marker.

Test [14] deals with T12, hypothetical protein GX51_07420 [Blastomyces parvus] (IGRP305_324_path16) peptide on HLA-DRA*01:01 / … (human).
T12 peptide: KYEFLPIPTYEEATS
The test is described as follows: activation reporter or marker.

The target in test [15] is T1, IGRP (islet-specific …). Briefly: upper end of the range; CD154 surface expression intensity; LV-transduced CD4+ T cells 3:1 with peptide-pulsed HLA-DR4 K562 cells, 20 h; full-length, on cells.
For test [16], the target named is T13, Preproinsulin (PPI) peptide on HLA-DRA*01:01 / HLA-DRB1*04:01 (human).
T13 peptide: SLQPLALEGSLQKRG
The test is described as follows: proliferation.

In test [17] the target is T1, IGRP (islet-specific …). Briefly: proliferation.

B1: T1D2 TCR (TCR, V domains shown)
Valpha: DQQVKQNSPSLSVQEGRISILNCDYTNSMFDYFLWYKKYPAEGPTFLISISSIKDKNEDGRFTVFLNKSAKHLSLHIVPSQPGDSAVYFCAATRTSGTYKYIFGTGTRLKVLA
Vbeta: NAGVTQTPKFRILKIGQSMTLQCTQDMNHNYMYWYRQDPGMGLKLIYYSVGAGITDKGEVPNGYNVSRSTTEDFPLRLELAAPSQTSVYFCASSPWGAGGTDTQYFGPGTRLTVL
Turning to B1, the EC50 of peptide with IGRP (islet-specific …) [1] was at most 0.1 µg/mL; with IGRP (islet-specific …) [2], at least 0.03 µg/mL; in the test with IGRP (islet-specific …) [3], at least 0.1 µg/mL; with IGRP (islet-specific …) [15], at most 0.3 µg/mL. For the same molecule, the binding result in [4], in [5], in [6], in [7], in [8] and in [9] was “no recognition” each time. In addition, the binding result in test [10], in test [11], in test [12], in test [13] and in test [14] was “no recognition” throughout.

B2: T1D4 TCR (TCR, V domains shown)
Valpha: KDQVFQPSTVASSEGAVVEIFCNHSVSNAYNFFWYLHFPGCAPRLLVKGSKPSQQGRYNMTYERFSSSLLILQVREADAAVYYCAVEDLNQAGTALIFGKGTTLSVSS
Vbeta: KAGVTQTPRYLIKTRGQQVTLSCSPISGHRSVSWYQQTPGQGLQFLFEYFSETQRNKGNFPGRFSGRQFSNSRSEMNVSTLELGDSALYLCASSLALGQGNQQFFGPGTRLTVL
For B2, the binding result (in test [16]; with IGRP (islet-specific …) [17]) was “no recognition” each time.
